Laboratory results reported in patent US6331664A, “Acyl-ACP thioesterase nucleic acids from maize and methods of altering palmitic acid levels in transgenic plants therewith” (Dow AgroSciences LLC, priority 1998, dated 2001).
Where two headings read alike, the source gives them in different places.

Key:
[1] = tested on: maize OTE; assay: Thioesterase assay, substrate specificity of maize OTE expressed in E. coli; type: biochemical; settings: for Percent Relative Activity: radio-labeled acyl-ACP, 100% = 2.1 units/mg protein
[2] = tested on: maize OTE; assay: Thioesterase assay, substrate specificity and Km of maize OTE purified from kernels; type: biochemical; settings: for Km: double reciprocal plots; for activity relative to that observed with 18:1-ACP: C14-labeled acyl-ACPs
Method: (§1) For enzymatic analysis of E coli expressed maize PTE, substrates were made as follows: ACP (Sigma Chemical Co.) was further purified by three cycles of precipitation at pH 4.0 using 10% (v/v) acetic acid followed by resolubilization in 50 mM Tris-HCl, pH 8.0. Carbon-14 or tritium-labeled fatty acids (lauric, 12:0; myristic, 14:0; palmitic, 16:0; stearic, 18:0; and oleic, 18:1) were obtained from Amersham (Arlington Heights, Ill.) or NEN Research Products. Acyl-ACPs were synthesized and purified according to Rock et al., ((1981) Methods in Enzymology, 72:397-403). Thioesterase assays were conducted according to Ohlrogge et al., ((1978) Arch. Biochem. Biophys. 189:382-391) with slight modifications. A standard reaction contained […] Tris-HCl, pH 8.0, 10 μM radio-labeled acyl-ACP (50-58 μCi/μmol), and enzyme in 50 μL. Reactions were conducted at 30° C. for 5 min and terminated with 200 μL of 10% (v/v) acetic acid. Free fatty acids were extracted twice with 1 mL hexane and the organic phases were combined for liquid scintillation counting. Protein concentrations were determined according to Bradford ((1976) Anal. Biochem. […]:248-254). Linear regressions were used for determination of kinetic constants from double reciprocal plots.
The resolubilized PEG-precipitated material was applied to hydroxyapatite (HA-Ultrogel, Sigma Chemical Co.) which had been previously loaded into a 2.5×20 cm column equilibrated with buffer A. After loading, the column was washed with 300 mL of buffer A and maize OTE activity was eluted with buffer A having 1 M NaCl. Enzymatic activity was followed using C^14 labeled 18:1-ACP as substrate. Production of substrate and biochemical assays were performed as described herein. Fractions having thioesterase activity were pooled and desalted to 20 mM Tris, pH 7.0, 0.4 mM DTT (buffer B) on PD-10 columns (Pharmacia). The desalted fraction was then applied to a MonoQ HR 10/10 column (Pharmacia) and the enzyme was eluted using a linear gradient of 0-0.5 M NaCl in buffer B over 30 min. at a flow rate of 4 mL/min. Fractions were assayed for activity and active fractions were pooled and desalted on PD-10 columns (Pharmacia) equilibrated with buffer A.
The substrate specificity of purified maize OTE was analyzed using several C^14 -labeled acyl-ACPs as described herein. […] Low activities (less than 10% of that observed with 18:1-ACP) were observed when using 12:0-ACP, 14:0-ACP, 16:0-ACP, 18:0-ACP.

[3] = tested on: maize PTE; assay: Thioesterase assay, substrate specificity of partially purified maize PTE expressed in E. coli; type: biochemical; settings: for Percent Relative Activity: 10 μM radio-labeled acyl-ACP, 30° C., 5 min, 100% = 2.1 units/mg protein
Method: as §1

[4] = target: 12:0-ACP (Laurate)
[5] = target: 18:0-ACP (Stearate)
[6] = target: 14:0-ACP (Myristate)
[7] = target: 16:0-ACP (Palmitate)
[8] = target: 18:1-ACP (Oleate)
[9] = target: 12:0-ACP (Laurate); remark: listed apart in the source
[10] = target: 18:0-ACP (Stearate); remark: listed apart in the source
[11] = target: 14:0-ACP (Myristate); remark: listed apart in the source
[12] = target: 16:0-ACP (Palmitate); remark: listed apart in the source
[13] = target: 18:1-ACP (Oleate); remark: listed apart in the source
[14] = target: 12:0-ACP (Laurate); remark: listed apart in the source
[15] = target: 18:0-ACP (Stearate); remark: listed apart in the source
[16] = target: 14:0-ACP (Myristate); remark: listed apart in the source
[17] = target: 16:0-ACP (Palmitate); remark: listed apart in the source
[18] = target: 18:1-ACP (Oleate); remark: listed apart in the source

## 18:1-ACP: radio-labeled oleic acid thioester of acyl carrier protein, thioesterase substrate
[1]
  Percent Relative Activity: 100.0%
[2]
  Km: 0.75 µM
[3]
  Percent Relative Activity: 40.4%

## 16:0-ACP: radio-labeled palmitic acid thioester of acyl carrier protein, thioesterase substrate
[1]
  Percent Relative Activity: 14.1%
[2]
  activity relative to that observed with 18:1-ACP: less than 10%
  Km: 25 µM
[3]
  Percent Relative Activity: 100.0%

## maize oleoyl-ACP thioesterase, mature protein expressed in E. coli (pDAB371) (enzyme)
[4]
  Percent Relative Activity (thioesterase assay, release of radio-labeled free fatty acid) (% relative activity): 0.7
[5]
  Percent Relative Activity (thioesterase assay, release of radio-labeled free fatty acid) (% relative activity): 25.2
[6]
  Percent Relative Activity (thioesterase assay, release of radio-labeled free fatty acid) (% relative activity): 6.3
[7]
  Percent Relative Activity (thioesterase assay, release of radio-labeled free fatty acid) (% relative activity): 14.1
[8]
  Percent Relative Activity (thioesterase assay, release of radio-labeled free fatty acid) (% relative activity): 100

## maize oleoyl-ACP thioesterase, native protein from maize kernels and embryos (enzyme)
[9]
  substrate specificity (thioesterase assay with C14-labeled acyl-ACPs) (% of that observed with 18:1-ACP): < 10
[10]
  substrate specificity (thioesterase assay with C14-labeled acyl-ACPs) (% of that observed with 18:1-ACP): < 10
[11]
  substrate specificity (thioesterase assay with C14-labeled acyl-ACPs) (% of that observed with 18:1-ACP): < 10
[12]
  Km: 25 µM
  substrate specificity (thioesterase assay with C14-labeled acyl-ACPs) (% of that observed with 18:1-ACP): < 10
[13]
  Km: 0.75 µM

## 18:0-ACP: radio-labeled stearic acid thioester of acyl carrier protein, thioesterase substrate
[1]
  Percent Relative Activity: 25.2%
[2]
  activity relative to that observed with 18:1-ACP: less than 10%
[3]
  Percent Relative Activity: 61.2%

## 12:0-ACP: radio-labeled lauric acid thioester of acyl carrier protein, thioesterase substrate
[1]
  Percent Relative Activity: 0.7%
[2]
  activity relative to that observed with 18:1-ACP: less than 10%
[3]
  Percent Relative Activity: 0.0%

## maize palmitoyl-ACP thioesterase, mature protein expressed in E. coli (pDAB378) (enzyme)
[14]
  Percent Relative Activity (thioesterase assay, release of radio-labeled free fatty acid) (% relative activity): 0
[15]
  Percent Relative Activity (thioesterase assay, release of radio-labeled free fatty acid) (% relative activity): 61.2
[16]
  Percent Relative Activity (thioesterase assay, release of radio-labeled free fatty acid) (% relative activity): 16
[17]
  Percent Relative Activity (thioesterase assay, release of radio-labeled free fatty acid) (% relative activity): 100
[18]
  Percent Relative Activity (thioesterase assay, release of radio-labeled free fatty acid) (% relative activity): 40.4

B1: maize PTE: maize palmitoyl-ACP thioesterase, mature protein expressed in E. coli from pDAB378 (protein)
chain: LPDWSMLLAAITTIFLAAEKQWTMLDWKPRRPDMLTDTFGFGRIIHDGLMFRQNFSIRSYEIGADRTASIETLMNHLQETALNHVKTAGLLGDGFGSTPEMSKRNLFWVVSQMQAIIERYPCWGDTVEVDTWVSANGKNGMRRDWHIRDPITGLTILKATSKWVMMNKLTRKLARIPDEVRTEIEPYFFEHSAIVDEDNRKLPKLPEGQSTSVAKYVRTGLTPRWADLDINQHVNNVKYIAWILESAPISILENHELASIVLDYKRECGRDSVLQSHTSVHTDCNSESGETTLHCEHVLSLESGPTMVKARTMWRPKGTKAQETVVPSSI
[3]; unit = cleavage of 1 μmol/h free fatty acid at 30° C., 16:0-ACP
  specific activity equivalent to 100% relative activity: 2.1 units/mg protein

B2: maize OTE: maize oleoyl-ACP thioesterase, purified from kernels or expressed in E. coli from pDAB371 (protein)
chain: CARGAPQVSGIEAASPGHAAVTAALAKAEGGDARPSLAERLRLGNLLEDGLSYKESFIVRCYEVGINKTATVETIANLLQEVGCNHAQSVGFSTDGFATTTTMRKLGLIWVTNRMHIEIYKYPAWGDVVEIETWCQEDGRIGTRRDWILKDLANGEVIGRATSKWVMMNQNTRRLQRVSDDVRDEVFMHCPKAPRLAFPEENNGSLKKIPNLSDPAEYSRLGLVPRRADLDMNQHVNNVTYIGWVLESIPQDIIDTHELQTITLDYRRECQQDDIVDSLTCIEEGEEKSMNGSASAAAPHKEERQQFLHCLRFAANGHEINRGRTVWRKLAR
[1]; unit = cleavage of 1 μmol/h free fatty acid at 30° C., 18:1-ACP
  specific activity equivalent to 100% relative activity: 2.1 units/mg protein
